This note sets out measurements from the nanobody polyreactivity screen of Harvey et al. (2022).

The data set can be described thus: yeast display, Sf9 membrane polyspecificity reagent, FACS + sequencing; frameworks hold sequencing errors. An outline of the steps:
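Galactose-induced (36–48 hours) yeast carrying a synthetic nanobody display library were exposed to 10% biotinylated, detergent-solubilized Sf9 membrane reagent at 4 °C for 1 hour. FACS followed streptavidin microbead enrichment, using low and high (top ~1%) gates for expression (anti-HA) and reagent binding (streptavidin). Colony PCR, MiSeq 2 × 250 sequencing and CDR-length filtering followed. Labels for polyreactivity reflect the gate of origin.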
For the sequence “QVQLVESGGGLVQAGGSLRLSCAASGSIFFYYAMGWYRQAPGKERELVADITSGGTTYYADSVKGRFTISRDNAKNTVYLQMNSQKPEDTAVYYCNAGLYPGQRPDYTNYSSYYWGQGTQVTVSS”, the “polyreactivity (PSR sort gate)” value is recorded as “low polyreactivity”.

Turning to “QVQLVESGGGLVQAGGSLRLSCAASGSIFFYYAMGWYRQAPGKERELVASISTDGSTYADSVKGRFTISRDNAKNTVYLQMNSLKPEDTAVYYCNADTRGEYTYVSWYDYWGQGTQVTVSS”, the “polyreactivity (PSR sort gate)” value is “low polyreactivity”. With “QVQLVESGGGLVQAGGSLRLSCAASGSIFGAIAMGWYRQAPGKERELVPAITSGGSTNYADSVKGRFTISRDNAKNTFYLQMNSLKPEDTAVYYCAARRRYAKFRYDYWGQGTQVTVSS” the entry was “high polyreactivity”; with “QVQLVESGGGLVQAGGSLRLSCAASGSIFGANTMGWYRQAPGKERELGAAISKRGGSTYYADSVKGRFTISRDNAKNTVYLQMNSLKPEDTAVYYCNATPRYLRQYVDPNWGYDYWGQGTQVTVSS”, “low polyreactivity”.

As for “QVQLVESGGGLVQAGGSLRLSCAASGSIFGANTMGWYRQAPGKERELVAAISSGGNTYYADSVKGRFTISRDNAKNTVYLQMNSLKPEDTAVYYCAVGAYWYFGFVSYGYDYCGQGTQVTVSS”, the “polyreactivity (PSR sort gate)” value is recorded as “low polyreactivity”.

Regarding “QVQLVESGGGLVQAGGSLRLSCAASGSIFGANTMGWYRQAPGKERELVAGITSGARTYYADSVKGRFTISRDNAKNTVYLQMNSLKPEDTAVYYCAAKYAWRRYGYWGQGTQVTVSS”, the “polyreactivity (PSR sort gate)” value was “high polyreactivity”.

Consider “QVQLVESGGGLVQAGGSLRLSCAASGSIFGANVMGWYRQAPGKERELVAAISFSGGSTFYADSVKGRFTISRDNAKNTVYLQMNSLKPEDTAVYYCAASYGGKGVKYYYWGQGTQVTVSS”, for which the “polyreactivity (PSR sort gate)” value was “high polyreactivity”.

On to “QVQLVESGGGLVQAGGSLRLSCAASGSIFGAYAMGWYRQAPGKERELVAAITSGGSTNYADSVKGRFTISRDNAKNTVYLQMNSLKPEDTAVYYCAARRRYAKFRYDYWGQGTQVTVSS”, for which the “polyreactivity (PSR sort gate)” value was “high polyreactivity”. The entry for “QVQLVESGGGLVQAGGSLRLSCAASGSIFGAYAMGWYRQAPGKERELVAAITWRGGSTYYADSVKGRFTISRDNAKNTVYLQMNSLNPEDTAVYYCATDTWGSYYDDDDYWGQGTEVTVSS” is “high polyreactivity”; for “QVQLVESGGGLVQAGGSLRLSCAASGSIFGAYAMGWYRQAPGPESELVATITLRDGSTYYADSVKGRFTISRDNAKNTVYLQLNSLKPEDTAVYYCATYYSAINYGSSTTILYDYWGQGTQVSVSS” it is “low polyreactivity”; for “QVQLVESGGGLVQAGGSLRLSCAASGSIFGAYAMRWYRQAPGKERELVAAISYGGGNTYYADSVKGRFTISRDNAKNTVYLQMNSLKPEDTAFYYCNALFPRVSGSTYRYNYWGQGTQVTVSS” it is “high polyreactivity”. In the case of “QVQLVESGGGLVQAGGSLRLSCAASGSIFGDYAMGWYRQAPGKERELVADISSGGSTTYADSVTGRFTISRDNAKNTVYLQMNSLKPEDTAVYYCAVDGGDFSSYGNWGQGTQVTVSS”, the “polyreactivity (PSR sort gate)” value was “low polyreactivity”. With “QVQLVESGGGLVQAGGSLRLSCAASGSIFGEYAMGWYRQAPGKERELVATIRQSGDSTYYAVSVKGRFTISRDTAKNTVYLQMNSLKPEDTAVYYCAADLWLYDYYSEYDYWGPGTQVTVSS” the entry was “low polyreactivity”; with “QVQLVESGGGLVQAGGSLRLSCAASGSIFGEYAMGWYRQAPGKERELVATISWSAGSTYYADSVKGRFTISRDYAKNTVYLQMNSLKPEDTAVYYCAAAYDGYYLSTFDSWGQGTQVTVSS”, “low polyreactivity”; with “QVQLVESGGGLVQAGGSLRLSCAASGSIFGFNAMGWYRQAPGKERELVAGITSGDRTNYADSVKGRFTISRDNAKNTVYLQMNSLKPEDTAVYYCAARKYVFFKMYYWGQGTQVTVSS”, “low polyreactivity”. As for “QVQLVESGGGLVQAGGSLRLSCAASGSIFGFYAMGWDRQAPGKERELVAAIRWRDGRTYYADSVKGRFTISRDNAKNTVYLQMNSLKPEDTAVYYCAAGTPWAYDYWGQGTQVTVSS”, the “polyreactivity (PSR sort gate)” value is on record as “high polyreactivity”. The entry for “QVQLVESGGGLVQAGGSLRLSCAASGSIFGFYAMGWYRQAPGKERELVASISSSGDSTYYADSVKGRFTISRDNAKNTVYLQMNSLKPEDTAVYYCAAVVYDIYGYEFDYWGQGTQVTVSS” is “low polyreactivity”. With “QVQLVESGGGLVQAGGSLRLSCAASGSIFGFYGMGWYRQAPGKERELVAAISSRGGNTYYADSVKGRFTISRDNAKNTVYLQMNSLKPEDTAVYYCNAYRYVRHYSFDYWGQGTQVTVSS” the entry was “high polyreactivity”; with “QVQLVESGGGLVQAGGSLRLSCAASGSIFGFYVMGWYRQAPGKERELVAAISRGGTRTYYAVSVKGRFTISRDNAKNTVYLKMNSLKPEDTAVYYCAKYEGGSCTGPRSDYWGQGTQVTVSS”, “high polyreactivity”; with “QVQLVESGGGLVQAGGSLRLSCAASGSIFGGNAMGWYRQAPGKERELVAAITSRGGSTYYADSVKGRFTISRDNAKNTVYLQMNSLKPEDTAVYYCNALSSGVYLYDYWGQGTQVTVSS”, “high polyreactivity”.

As for “QVQLVESGGGLVQAGGSLRLSCAASGSIFGGYAMGWYRQAPGKERELVAAISGSGGSTYYADSVKGRFTISRDNAKNTVYLQMNSLKPEDTAVYYCAADSNKYGYEYDYWGQGTQVTVSS”, the “polyreactivity (PSR sort gate)” value is on record as “low polyreactivity”. With “QVQLVESGGGLVQAGGSLRLSCAASGSIFGGYAMGWYRQAPGKERELVAAISRSGASTYYADSVKGRFTISRDNAKNTVYLQMNSLKPVDTAVYYCAAYALRGVRYPYRVDFYYWGQGTQVTVSS” the entry was “high polyreactivity”; with “QVQLVESGGGLVQAGGSLRLSCAASGSIFGGYAMGWYRQAPGKERELVAAISWSSSSTYYADSVKGRFTISRDNAKNTVFLQMISLKPEDTAVYYCATGIYPQTSDYVYWGQGTQVTVSS”, “low polyreactivity”. Regarding “QVQLVESGGGLVQAGGSLRLSCAASGSIFGGYDMGWYRQAPGTERELVAAITRDGDTNYADSVKGRFTISRDNAKNTVYLQMNSLKPEDTAVYYCAADRWLYSWFFNYDQGDYWGQGTQVTVSS”, the “polyreactivity (PSR sort gate)” value is reported as “low polyreactivity”. The entry for “QVQLVESGGGLVQAGGSLRLSCAASGSIFGGYGMGWYRQAPGTERELVAAITSGSSTYYADSVKGRFTISRDNAKNTVYLQMNSLKPEDTAVYYCAARPYPHSAYEGDYWGRGTQVTVSS” is “low polyreactivity”. The entry for “QVQLVESGGGLVQAGGSLRLSCAASGSIFGGYTMGWYRQAPGKERELVAAISRRGGNTYYADSVKGRFTISRDNAKNTVYLQMKSLKPEDTAVYYCAVRWPSARIPVKLDYWGQGTQVTVSS” is “high polyreactivity”; for “QVQLVESGGGLVQAGGSLRLSCAASGSIFGHYAMGWYRQATGKERELVATISRRGGSTYYADSVKVRFTISRDNAKNTVYLQMNSLKPEDTAVYYCAADSKGSLYGYWGQGTQVTVSS” it is “high polyreactivity”. With “QVQLVESGGGLVQAGGSLRLSCAASGSIFGINAMGWYRQAPGKERELVAAITWSGGSTFYADSVKGRFTISRDNAKNTVYLQMNSLKPEDTAVYYCAASYSRWYWLYTSDYWGQGTQVTVSS” the entry was “high polyreactivity”.

In the case of “QVQLVESGGGLVQAGGSLRLSCAASGSIFGIYAMGWYRQAPGKERELVAAISRSGGRTYYADSVKGRFTISRDNAKNTVYLQMNSLKPEDTAVYYCAARPPGGYLYDYWGQGTQVTVSS”, the “polyreactivity (PSR sort gate)” value is recorded as “high polyreactivity”. With “QVQLVESGGGLVQAGGSLRLSCAASGSIFGIYAMGWYRQAPGKERELVATITGRGGSTYYADSVKGRFTISRDNAKNTVYLQMNSLKPEDTAVYYCNAGGRSARYFWGGYWGQGTQVTVSS” the entry was “high polyreactivity”; with “QVQLVESGGGLVQAGGSLRLSCAASGSIFGIYARGWYRQAPGKEREFVATITLGGGNTYYADSVKGRFTISRDYAKNTVYLQMNSLKPEDTAVYYCAARYFGLKRYDDYWGQGTQVTVSS”, “high polyreactivity”. With “QVQLVESGGGLVQAGGSLRLSCAASGSIFGKNAMGWYRQAPGKERELVAAITWSGGSTYYADSVKGRFTISRDNAKNTVYLQMNSLKPEDTAVYYCNAVRVRVTSHRIRQLDYGYWGQGTQVTVSS” the entry was “low polyreactivity”. The entry for “QVQLVESGGGLVQAGGSLRLSCAASGSIFGKNAMGWYRQAPGKERELVASITWDGSSTYYADSVKGRFTISRDNAKNTVYLQMNSLKPEDTAVYYCNADYHVQYEYYPYDYWGQGTQVTVSS” is “low polyreactivity”. On to “QVQLVESGGGLVQAGGSLRLSCAASGSIFGKYTMGWYRQAPGKERELVAAITSGGSTNYADSVKGRFTISRDNAKNSVYLQMNSLKPEDTSVYYCAAPGTWIPSSTECGDGYDYWGQGTQVTVSS”, for which the “polyreactivity (PSR sort gate)” value is “low polyreactivity”.

Regarding “QVQLVESGGGLVQAGGSLRLSCAASGSIFGLNAMGWYRQAPGKERELVAAISVSGTRTYYADSVKGRFTISRDNAKNTGYLQMNSLKPEDTAVYYCAAYSYSSSFGYRYDYWGQGTQVTVSS”, the “polyreactivity (PSR sort gate)” value is reported as “high polyreactivity”.

“QVQLVESGGGLVQAGGSLRLSCAASGSIFGLYAMGWYRPAPGKERELVAAISRTGGSTYYADSVKGRFTLSRDNAKNTVYFQMHSLKPEETAVYYCAAKYQYTQYDYWGQGTQVTVSS”: the “polyreactivity (PSR sort gate)” value is recorded as “high polyreactivity”.

For the sequence “QVQLVESGGGLVQAGGSLRLSCAASGSIFGLYAMGWYRQAPGKERELVAAISGSGSRTYYADSVKGRFTISRDNAKNTVYLQMNSLKPEDTAVYYCAADRYWYGVHASIYYYWGQGTQVTVSS”, the “polyreactivity (PSR sort gate)” value is reported as “high polyreactivity”.

“QVQLVESGGGLVQAGGSLRLSCAASGSIFGLYGMGWYRPAAGKERELLAAITGRGGSTYYADSVKGRFTISRDNAKITVYLQMNSLKPEDTAVYYCAALRYTFAGRFDYWGQGTQVNVSS”: the “polyreactivity (PSR sort gate)” value is recorded as “high polyreactivity”. With “QVQLVESGGGLVQAGGSLRLSCAASGSIFGLYTMGWYRQAPGKERELVAAIDSGDSTNYADSVKGRFTISRDNEKNTVYLQMNSLKQEDTAVYYCNALGEYPYYSSFWYESWGQGTQVTVSS” the entry was “low polyreactivity”; with “QVQLVESGGGLVQAGGSLRLSCAASGSIFGLYTMGWYRQAPGKERELVAAISGGGGSTYYADSVKGRFTISRDNAKNTVYLQMNSLKPEDTAVYYCAADLELSEWYDYWGQGTQVTVSS”, “low polyreactivity”.
